Reference: patent US20150165065A1 (AVIDBIOTICS, published 2015)

Columns and labels:
[1] = biological target: T1, integrin αVβ5 (UniProt P06756 31-992; P18084 24-719); test: phage ELISA, coated integrin, anti-M13-HRP
T1 construct: Coated on the ELISA plate
Procedure: (§1) The phage vectors were independently transformed into NEBαF′tet competent E. coli cells. Phages produced by the transformed cells were tittered and their concentrations adjusted by dilution to 10¹³ per ml. The ability of the soluble MICA molecules in each of the phage preparations was assayed by an ELISA using the intended target proteins, integrin αVβ3 or αVβ5, as capture agents on the ELISA plate. After the respective integrins were adhered to the bottoms of the wells of the ELISA plate, the wells were washed and blocked, as well known in the field. Each sample (100 μl) of phage preparation was added to wells containing αVβ3 or αVβ5, incubated and washed. The phages captured by the integrins were detected by HRP-conjugated antibody to the M13 phage coat developed with Ultra TMB-ELISA substrate and the optical densities read.

[2] = biological target: T2, integrin αVβ3 (UniProt P06756 31-992; P05106 27-718); test: phage ELISA, coated integrin, anti-M13-HRP
T2 construct: Coated on the ELISA plate
Procedure: as §1

[3] = biological target: the targeted integrin; test: cell-based or functional assay
[4] = biological target: T1, integrin αVβ5; test: ELISA, coated integrin, anti-MICA-HRP
Procedure: (§2) The ability of the soluble MICA molecules in each of the concentrated supernatants to bind target molecules was assayed by an ELISA using the intended target proteins, integrin αVβ3 or αVβ5, as capture agents on the ELISA plate. After the respective integrins were adhered to the bottoms of the wells of the ELISA plate, the wells were washed and blocked, as well known in the field. Each sample (100 μl) of soluble MICA produced and secreted by 293T cells was added to wells containing αVβ3 or αVβ5, incubated and washed. The soluble MICA molecules captured by the integrins were detected by HRP-conjugated antibody to human MICA developed with Ultra TMB-ELISA substrate and the optical densities read. The quantity of soluble MICA in each sample was determined by the MICA-specific ELISA. […] The ELISA signal from a non-binding, negative control MICA (generated by pSW273) was subtracted from each integrin binding signal.

[5] = biological target: T2, integrin αVβ3; test: ELISA, coated integrin, anti-MICA-HRP
Procedure: as §2

T1 sequence (P06756 31-992, chain 1 of 2): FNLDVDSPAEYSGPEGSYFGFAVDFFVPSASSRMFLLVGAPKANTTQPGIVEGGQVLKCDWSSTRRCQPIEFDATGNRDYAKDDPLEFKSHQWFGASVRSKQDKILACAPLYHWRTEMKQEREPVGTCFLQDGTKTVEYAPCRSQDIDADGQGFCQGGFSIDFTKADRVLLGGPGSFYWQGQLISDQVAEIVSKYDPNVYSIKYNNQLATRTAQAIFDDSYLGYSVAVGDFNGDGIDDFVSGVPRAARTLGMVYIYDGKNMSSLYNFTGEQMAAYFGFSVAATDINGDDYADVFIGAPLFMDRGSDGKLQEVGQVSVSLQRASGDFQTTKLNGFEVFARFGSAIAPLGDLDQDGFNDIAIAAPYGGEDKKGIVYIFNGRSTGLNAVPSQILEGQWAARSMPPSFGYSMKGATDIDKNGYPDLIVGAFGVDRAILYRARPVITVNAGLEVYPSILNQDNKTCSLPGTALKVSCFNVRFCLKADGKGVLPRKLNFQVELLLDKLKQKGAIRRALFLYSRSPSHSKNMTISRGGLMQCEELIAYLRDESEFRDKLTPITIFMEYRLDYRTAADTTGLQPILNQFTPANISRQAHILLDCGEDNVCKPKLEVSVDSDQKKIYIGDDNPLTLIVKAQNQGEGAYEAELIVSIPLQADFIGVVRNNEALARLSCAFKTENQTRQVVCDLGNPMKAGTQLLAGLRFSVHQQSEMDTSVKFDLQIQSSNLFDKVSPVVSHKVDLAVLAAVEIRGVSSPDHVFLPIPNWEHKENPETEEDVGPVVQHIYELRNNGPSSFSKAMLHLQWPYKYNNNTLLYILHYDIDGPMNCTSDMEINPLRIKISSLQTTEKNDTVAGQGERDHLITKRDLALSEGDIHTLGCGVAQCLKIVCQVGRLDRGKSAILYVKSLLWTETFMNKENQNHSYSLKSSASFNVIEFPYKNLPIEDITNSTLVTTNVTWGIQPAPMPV
T1 sequence (P18084 24-719, chain 2 of 2): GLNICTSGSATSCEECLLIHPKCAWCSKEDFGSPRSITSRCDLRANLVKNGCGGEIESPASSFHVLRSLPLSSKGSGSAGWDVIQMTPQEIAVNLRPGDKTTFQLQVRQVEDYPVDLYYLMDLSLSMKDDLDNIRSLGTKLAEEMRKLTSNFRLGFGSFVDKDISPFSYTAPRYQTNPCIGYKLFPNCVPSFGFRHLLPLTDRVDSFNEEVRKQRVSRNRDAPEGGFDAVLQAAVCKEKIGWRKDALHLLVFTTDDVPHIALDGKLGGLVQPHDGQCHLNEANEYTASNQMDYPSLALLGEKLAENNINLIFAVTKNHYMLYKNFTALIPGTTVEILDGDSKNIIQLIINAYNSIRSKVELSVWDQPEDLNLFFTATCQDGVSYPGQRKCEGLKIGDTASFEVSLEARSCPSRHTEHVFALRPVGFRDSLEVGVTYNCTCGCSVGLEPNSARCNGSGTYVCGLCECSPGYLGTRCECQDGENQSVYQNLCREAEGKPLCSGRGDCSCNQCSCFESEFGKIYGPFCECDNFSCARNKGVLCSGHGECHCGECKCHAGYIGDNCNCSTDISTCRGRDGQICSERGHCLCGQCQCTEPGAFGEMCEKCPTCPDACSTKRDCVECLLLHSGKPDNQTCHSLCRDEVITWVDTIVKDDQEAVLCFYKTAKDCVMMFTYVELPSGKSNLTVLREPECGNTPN
T2 sequence (P06756 31-992, chain 1 of 2): as the sequence (P06756 31-992, chain 1 of 2) above
T2 sequence (P05106 27-718, chain 2 of 2): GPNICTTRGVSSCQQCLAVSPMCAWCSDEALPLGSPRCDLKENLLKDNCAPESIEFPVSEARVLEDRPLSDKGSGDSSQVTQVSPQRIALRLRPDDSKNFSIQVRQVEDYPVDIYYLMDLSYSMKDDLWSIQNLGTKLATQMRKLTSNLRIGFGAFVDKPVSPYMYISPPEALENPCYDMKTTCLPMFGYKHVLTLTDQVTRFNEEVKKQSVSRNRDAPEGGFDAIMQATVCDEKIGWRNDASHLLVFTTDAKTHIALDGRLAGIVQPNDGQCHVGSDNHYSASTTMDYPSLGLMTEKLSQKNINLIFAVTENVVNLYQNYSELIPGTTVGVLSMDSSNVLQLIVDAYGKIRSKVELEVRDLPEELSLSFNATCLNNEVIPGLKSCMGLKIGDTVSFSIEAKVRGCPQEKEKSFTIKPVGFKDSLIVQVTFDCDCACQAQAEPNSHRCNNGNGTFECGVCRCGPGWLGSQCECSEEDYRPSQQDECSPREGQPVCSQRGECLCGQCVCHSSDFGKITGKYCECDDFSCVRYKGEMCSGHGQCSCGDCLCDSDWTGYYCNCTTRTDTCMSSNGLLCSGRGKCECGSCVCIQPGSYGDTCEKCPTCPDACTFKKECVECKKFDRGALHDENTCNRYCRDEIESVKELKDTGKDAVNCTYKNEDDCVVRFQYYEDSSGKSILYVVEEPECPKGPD

B1: M13 phage pKK92 displaying MICA α3 domain with loop 1 insert 3.1 (designed binder)
chain: TVPPMVNVTSRGDHPRTQVTCRASGFYPWNITLSWRQDGVSLSHDTQQWGDVLPDGNGTYQTWVATRICQGEEQRFTCYMEHSGNHSTHPVPSGK
notes: also called 1-3.1; not shown: C-terminal portion of M13 gene III protein, fused at codon position 198
αvβ5 signal [1]: 1.32 OD
αvβ3 signal [2]: 0.858 OD

B2: soluble MICA generated from pKK131 (loop 1 extended 5.1sp, loop 3 extended 5.1spNH) (designed binder)
chain: HHHHHHEPHSLRYNLTVLSWDGSVQSGFLTEVHLDGQPFLRCDRQKCRAKPQGQWAEDVLGNKTWDRETRDLTGNGKDLRMTLAHIKDQKEGLHSLQEIRVCEIHEDNSTRSSQHFYYDGELFLSQNLETEEWTMPQSSRAQTLAMNVRNFLKEDAMKTKTHYHAMHADCLQELRRYLKSGVVLRRTVPPMVNVTSGGSGGGSVTRGDTFTQSSGGSGGGVTCRASGFYPWNITLSWRQDGVSLSHDTQQWGDVLPDGNGTYQTWVATRISGGSGGGSVTRGDTFTQSSGGSGGGCYMEHSGNHSTHPVPSGK
green fluorescent signal from live MCF cells; 64 pg targeted MICA, NK 5:1 [3]: 5180 fluorescence
green fluorescent signal from live MCF cells; 64 pg targeted MICA, NK 10:1 [3]: 3700 fluorescence
green fluorescent signal from live MCF cells; 64 pg targeted MICA, no NK cells [3]: 5030 fluorescence
green fluorescent signal from live MCF cells; 128 pg targeted MICA, NK 5:1 [3]: 3460 fluorescence
green fluorescent signal from live MCF cells; 128 pg targeted MICA, NK 10:1 [3]: 2190 fluorescence
red fluorescent signal from (dead) MCF cells; 64 pg targeted MICA, NK 5:1 [3]: 27 fluorescence
red fluorescent signal from (dead) MCF cells; 64 pg targeted MICA, NK 10:1 [3]: 31 fluorescence
red fluorescent signal from (dead) MCF cells; 64 pg targeted MICA, no NK cells [3]: 19.9 fluorescence
red fluorescent signal from (dead) MCF cells; 128 pg targeted MICA, NK 5:1 [3]: 25.6 fluorescence
red fluorescent signal from (dead) MCF cells; 128 pg targeted MICA, NK 10:1 [3]: 41 fluorescence

B3: soluble MICA generated from pKK52 (tight loop 1 insert T-3.1) (designed binder)
chain: HHHHHHEPHSLRYNLTVLSWDGSVQSGFLTEVHLDGQPFLRCDRQKCRAKPQGQWAEDVLGNKTWDRETRDLTGNGKDLRMTLAHIKDQKEGLHSLQEIRVCEIHEDNSTRSSQHFYYDGELFLSQNLETEEWTMPQSSRAQTLAMNVRNFLKEDAMKTKTHYHAMHADCLQELRRYLKSGVVLRRTVPPMVNTSRGDHPRTQCRASGFYPWNITLSWRQDGVSLSHDTQQWGDVLPDGNGTYQTWVATRICQGEEQRFTCYMEHSGNHSTHPVPSGK
notes: From pSW324 (from pKK34: His6, Glu125); secreted by 293T cells; also called 1-T-3.1
αvβ5 signal [4]: 0.485 OD
αvβ5 signal/ng [4]: 12.6 signal/ng MICA
αvβ3 signal [5]: 0.391 OD
αvβ3 signal/ng [5]: 10.1 signal/ng MICA

B4: soluble MICA generated from pKK55 (tight loop 1 insert T-5.1) (designed binder)
chain: HHHHHHEPHSLRYNLTVLSWDGSVQSGFLTEVHLDGQPFLRCDRQKCRAKPQGQWAEDVLGNKTWDRETRDLTGNGKDLRMTLAHIKDQKEGLHSLQEIRVCEIHEDNSTRSSQHFYYDGELFLSQNLETEEWTMPQSSRAQTLAMNVRNFLKEDAMKTKTHYHAMHADCLQELRRYLKSGVVLRRTVPPMVNVTRGDTFTQSCRASGFYPWNITLSWRQDGVSLSHDTQQWGDVLPDGNGTYQTWVATRICQGEEQRFTCYMEHSGNHSTHPVPSGK
notes: From pSW324 (from pKK34: His6, Glu125); secreted by 293T cells; also called 1-T-5.1
αvβ5 signal [4]: 0.588 OD
αvβ5 signal/ng [4]: 17.4 signal/ng MICA
αvβ3 signal [5]: 0.475 OD
αvβ3 signal/ng [5]: 14 signal/ng MICA

B5: soluble MICA generated from pKK54 (tight loop 1 insert T-3.3) (designed binder)
chain: HHHHHHEPHSLRYNLTVLSWDGSVQSGFLTEVHLDGQPFLRCDRQKCRAKPQGQWAEDVLGNKTWDRETRDLTGNGKDLRMTLAHIKDQKEGLHSLQEIRVCEIHEDNSTRSSQHFYYDGELFLSQNLETEEWTMPQSSRAQTLAMNVRNFLKEDAMKTKTHYHAMHADCLQELRRYLKSGVVLRRTVPPMVNRVPRGDSDLTCRASGFYPWNITLSWRQDGVSLSHDTQQWGDVLPDGNGTYQTWVATRICQGEEQRFTCYMEHSGNHSTHPVPSGK
notes: From pSW324 (from pKK34: His6, Glu125); secreted by 293T cells; also called 1-T-3.3
αvβ5 signal [4]: 0.175 OD
αvβ5 signal/ng [4]: 19.3 signal/ng MICA
αvβ3 signal [5]: 0.177 OD
αvβ3 signal/ng [5]: 19.5 signal/ng MICA

B6: soluble MICA generated from pKK53 (tight loop 1 insert T-3.5) (designed binder)
chain: HHHHHHEPHSLRYNLTVLSWDGSVQSGFLTEVHLDGQPFLRCDRQKCRAKPQGQWAEDVLGNKTWDRETRDLTGNGKDLRMTLAHIKDQKEGLHSLQEIRVCEIHEDNSTRSSQHFYYDGELFLSQNLETEEWTMPQSSRAQTLAMNVRNFLKEDAMKTKTHYHAMHADCLQELRRYLKSGVVLRRTVPPMVNGSRGDSLIMHCRASGFYPWNITLSWRQDGVSLSHDTQQWGDVLPDGNGTYQTWVATRICQGEEQRFTCYMEHSGNHSTHPVPSGK
notes: From pSW324 (from pKK34: His6, Glu125); secreted by 293T cells; also called 1-T-3.5
αvβ5 signal [4]: 0.8 OD
αvβ5 signal/ng [4]: 22.8 signal/ng MICA
αvβ3 signal [5]: 0.659 OD
αvβ3 signal/ng [5]: 18.7 signal/ng MICA

B7: soluble MICA generated from pKK56 (tight loop 1 insert T-5.3) (designed binder)
chain: HHHHHHEPHSLRYNLTVLSWDGSVQSGFLTEVHLDGQPFLRCDRQKCRAKPQGQWAEDVLGNKTWDRETRDLTGNGKDLRMTLAHIKDQKEGLHSLQEIRVCEIHEDNSTRSSQHFYYDGELFLSQNLETEEWTMPQSSRAQTLAMNVRNFLKEDAMKTKTHYHAMHADCLQELRRYLKSGVVLRRTVPPMVNHLARGDDLTYCRASGFYPWNITLSWRQDGVSLSHDTQQWGDVLPDGNGTYQTWVATRICQGEEQRFTCYMEHSGNHSTHPVPSGK
notes: From pSW324 (from pKK34: His6, Glu125); secreted by 293T cells; also called 1-T-5.3
αvβ5 signal [4]: 0.528 OD
αvβ5 signal/ng [4]: 18.3 signal/ng MICA
αvβ3 signal [5]: 0.473 OD
αvβ3 signal/ng [5]: 16.4 signal/ng MICA

B8: M13 phage pKK107 displaying MICA α3 domain with tight loop 1 insert T-3.1 (designed binder)
chain: TVPPMVNTSRGDHPRTQCRASGFYPWNITLSWRQDGVSLSHDTQQWGDVLPDGNGTYQTWVATRICQGEEQRFTCYMEHSGNHSTHPVPSGK
notes: also called 1-T-3.1; not shown: C-terminal portion of M13 gene III protein, fused at codon position 198
αvβ5 signal [1]: 1.49 OD
αvβ3 signal [2]: 0.999 OD

B9: M13 phage pKK111 displaying MICA α3 domain with tight loop 1 insert T-5.3 (designed binder)
chain: TVPPMVNHLARGDDLTYCRASGFYPWNITLSWRQDGVSLSHDTQQWGDVLPDGNGTYQTWVATRICQGEEQRFTCYMEHSGNHSTHPVPSGK
notes: also called 1-T-5.3; not shown: C-terminal portion of M13 gene III protein, fused at codon position 198
αvβ5 signal [1]: 0.657 OD
αvβ3 signal [2]: 0.707 OD

B10: M13 phage pKK110 displaying MICA α3 domain with tight loop 1 insert T-5.1 (designed binder)
chain: TVPPMVNVTRGDTFTQSCRASGFYPWNITLSWRQDGVSLSHDTQQWGDVLPDGNGTYQTWVATRICQGEEQRFTCYMEHSGNHSTHPVPSGK
notes: also called 1-T-5.1; not shown: C-terminal portion of M13 gene III protein, fused at codon position 198
αvβ5 signal [1]: 2.56 OD
αvβ3 signal [2]: 1.49 OD

B11: M13 phage pKK108 displaying MICA α3 domain with tight loop 1 insert T-3.5 (designed binder)
chain: TVPPMVNGSRGDSLIMHCRASGFYPWNITLSWRQDGVSLSHDTQQWGDVLPDGNGTYQTWVATRICQGEEQRFTCYMEHSGNHSTHPVPSGK
notes: also called 1-T-3.5; not shown: C-terminal portion of M13 gene III protein, fused at codon position 198
αvβ5 signal [1]: -0.204 OD
αvβ3 signal [2]: -0.09 OD

B12: M13 phage pKK101 displaying MICA α3 domain with loop 1 insert 3.3sp (designed binder)
chain: TVPPMVNVTSGGSGGGSRVPRGDSDLTSGGSGGGVTCRASGFYPWNITLSWRQDGVSLSHDTQQWGDVLPDGNGTYQTWVATRICQGEEQRFTCYMEHSGNHSTHPVPSGK
notes: also called 1-3.3sp; not shown: C-terminal portion of M13 gene III protein, fused at codon position 198
αvβ5 signal [1]: 1.23 OD
αvβ3 signal [2]: 1.49 OD

B13: M13 phage pKK94 displaying MICA α3 domain with loop 1 insert 3.3 (designed binder)
chain: TVPPMVNVTRVPRGDSDLTVTCRASGFYPWNITLSWRQDGVSLSHDTQQWGDVLPDGNGTYQTWVATRICQGEEQRFTCYMEHSGNHSTHPVPSGK
notes: also called 1-3.3; not shown: C-terminal portion of M13 gene III protein, fused at codon position 198
αvβ5 signal [1]: 2.84 OD
αvβ3 signal [2]: 1.07 OD

B14: M13 phage pKK96 displaying MICA α3 domain with loop 1 insert 5.1 (designed binder)
chain: TVPPMVNVTVTRGDTFTQSVTCRASGFYPWNITLSWRQDGVSLSHDTQQWGDVLPDGNGTYQTWVATRICQGEEQRFTCYMEHSGNHSTHPVPSGK
notes: also called 1-5.1; not shown: C-terminal portion of M13 gene III protein, fused at codon position 198
αvβ5 signal [1]: 2.42 OD
αvβ3 signal [2]: 1.64 OD

B15: M13 phage pKK98 displaying MICA α3 domain with loop 1 insert 5.3 (designed binder)
chain: TVPPMVNVTHLARGDDLTYVTCRASGFYPWNITLSWRQDGVSLSHDTQQWGDVLPDGNGTYQTWVATRICQGEEQRFTCYMEHSGNHSTHPVPSGK
notes: also called 1-5.3; not shown: C-terminal portion of M13 gene III protein, fused at codon position 198
αvβ5 signal [1]: 1.48 OD
αvβ3 signal [2]: 1.22 OD

B16: M13 phage pKK97 displaying MICA α3 domain with loop 1 insert 5.2 (designed binder)
chain: TVPPMVNVTRGDTFTQSVTCRASGFYPWNITLSWRQDGVSLSHDTQQWGDVLPDGNGTYQTWVATRICQGEEQRFTCYMEHSGNHSTHPVPSGK
notes: also called 1-5.2; not shown: C-terminal portion of M13 gene III protein, fused at codon position 198
αvβ5 signal [1]: 2.59 OD
αvβ3 signal [2]: 1.55 OD

B17: M13 phage pKK104 displaying MICA α3 domain with loop 3 insert 3.2sp (designed binder)
chain: TVPPMVNVTRSEASEGNITVTCRASGFYPWNITLSWRQDGVSLSHDTQQWGDVLPDGNGTYQTWVATRISGGSGGGSTSRGDHPRTQSGGSGGGCYMEHSGNHSTHPVPSGK
notes: also called 3-3.2sp; not shown: C-terminal portion of M13 gene III protein, fused at codon position 198
αvβ5 signal [1]: 1.12 OD
αvβ3 signal [2]: 0.791 OD

B18: M13 phage pKK105 displaying MICA α3 domain with loop 3 insert 3.3sp (designed binder)
chain: TVPPMVNVTRSEASEGNITVTCRASGFYPWNITLSWRQDGVSLSHDTQQWGDVLPDGNGTYQTWVATRISGGSGGGSRVPRGDSDLTSGGSGGGCYMEHSGNHSTHPVPSGK
notes: also called 3-3.3sp; not shown: C-terminal portion of M13 gene III protein, fused at codon position 198
αvβ5 signal [1]: 1.11 OD
αvβ3 signal [2]: 1.33 OD
